Source: patent publication US20230295310A1 (ABCELLERA BIOLOGICS, published 2023)
Where a chain is given by its changes, count along the chain named.

B1: mAb 106 (antibody, V domains shown)
VH: QVQLVESGGGVVQPGRSLRLSCAASGFTFRSYGMHWVRQAPGKGLEWVAIIWYNGNKKDYVDSVKGRFTISRDNSKNTLYLQMNSLRAEDTALYYCARGPGYNWFDPWGQGTLVTVSS
VL: DIQMTQSPPSLSASVGDRVTITCRASQRISSYLNWYQQKPGKAPKLLIYAASSLQSGVPSRFSGSGSGTDFTLTISSLQPEDFATYYCQQSDSFPLTFGGGTKVEII
B2: mAb 110 (antibody, V domains shown)
VH: B1 VH with T78M
VL: B1 VL with K39R, S91T
B3: mAb 44 (antibody, V domains shown)
VH: QAQLVQSGSELKKPGASVKVSCKASGYTFTRHAMNWVRQAPGQGLEWMGWINTNTGNPTYAQGFTGRFVFSLDTSVSTAYLKISSLKAEDTAVYYCVREGDYDFWSGFFNFDYWGQGTLVTVSS
VL: DIQMTQSPSSLSASVGDRVTITCRASQGIRNDLGWFQQKPGKAPTRLIYAASSLQSGVPSRFSGSGSGAEFTLTISSLQPEDFATYYCLQHNSYPRTFGQGTKVEIK
B4: mAb 47 (antibody, V domains shown)
V domain 1: B3 VH with R31K, A33S, S77T, K82Q, V97A
V domain 2: B3 VH with R31K, A33S, S77T, K82Q, V97A
B5: mAb 102 (antibody, V domains shown)
VH: QVQLVESGGGVVQPGRSLRLSCAASGFSFRSYGMHWVRQAPGKGLEWVSVISYDGGNKYYADSVKGRFTISRDNSKNTLFLQMKSLRAEDTALYYCAKGGGTYWRGLFEYWGQGTLVTVSS
VL: DIQLTQSPSFLSASVGDRVTITCRASQGISSYLAWYQKKPGKAPKLLIYAASTLHSGVPSRFSGGGSGTAFTLTISSLQPEDFATYYCQQLNNYPFTFGPGTKVDIK
B6: mAb 94 (antibody, V domains shown)
VH: QVHLVESGGGVVQPGRSLRLSCSASGFTFSGYGMHWVRQAPGKGLEWVALIYFDGRNKYYADSVKGRFTISRDNSKNTLYLQMNSLRAEDTAVYYCARGGGYNWFDPWGQGTLVTVSS
VL: DIQMTQSPSSLSASVGDRVTITCRASQSISNYLNWYQQKPGKAPKLLIYLASSLQSGVPSRFSGSGSGTDFTLTINSLQPEDFASYYCQLSYSSPFTFGPGTKVDVN
B7: mAb 101 (antibody, V domains shown)
VH: B6 VH with V2G, H3Q, S23A, S30R, Y32F, L50I, F53Y, R56K, T78M, R98K
VL: B6 VL with N31T, L50S, N76S, S77N, S85I, L90R, S94P, V104L, V106I, N107R
B8: mAb 99 (antibody, V domains shown)
VH: B6 VH with V2G, H3Q, S23A, S30R, Y32F, L50I, F53Y, R56K, R98K
VL: B6 VL with N31T, L50S, N76S, S77N, S85I, L90R, S94P, V104L, V106I, N107R
B9: mAb 96 (antibody, V domains shown)
VH: B6 VH with V2A, A49S
VL: B6 VL with S30N, N34S, S53N, S65N, N76S, S85T, S93R, N107K
B10: mAb 100 (antibody, V domains shown)
VH: B6 VH with H3Q, S23V, S30R, L50I, F53Y, R56K, A88V, V93L
VL: DIQMTQSPSSLSASVGDRVTITCRASQSISTYLNWYQQKPGKAPKLLIYTASSLQSGVPSRFSGSGSGTVFTLTISSLQPEDFAIYYCQRSYSPPFTFGPGTRLDIK
B11: mAb 97 (antibody, V domains shown)
VH: B6 VH with V2G, H3Q, S23A, S30R, L50I, F53Y, R56K, S85N, A88V
VL: B10 VL with V15I, T31N, T50S, V70D, S77N, R103K, K107R
B12: mAb 98 (antibody, V domains shown)
VH: B6 VH with G10D
VL: B6 VL with S30N, N76S, F83L, S85T, N107K
B13: mAb 95 (antibody, V domains shown)
VH: B6 VH with V2A
VL: B6 VL with S30N, N34S, S53N, N76S, S85T, S93R, N107K
B14: mAb 118 (antibody, V domains shown)
VH: EVQLVESGGGLVQPGRSLRLSCAASGFTFDDYTMHWVRQAPGKGLEWVSGISWNSGSIGYADSVKGRFTISRDNAKNSLYLQMNSLRAEDTALYYCSKDSSGYGYYLNYSLDVWGKGTTVTVSS
VL: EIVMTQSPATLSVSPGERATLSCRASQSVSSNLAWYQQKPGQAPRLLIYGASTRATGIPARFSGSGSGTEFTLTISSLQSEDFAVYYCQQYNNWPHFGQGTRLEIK
B15: mAb 119 (antibody, V domains shown)
VH: B14 VH
VL: EIVMTQSPATLSVSPGERATLSCRASQSVSNLAWYQQKPGQAPRLLIYGASTRATGIPARFSGSGSGTEFTLTISSLQSEDFAVYYCQQYNNWPHFGQGTRLQIK
B16: mAb 121 (antibody, V domains shown)
VH: B14 VH with A24T, D30A, G59D, N77K, Y95F, S97A, Y105H, L107Y, N108F, S110Y
VL: EIVMTQSPGTLSVSPGKRATLSCRASQSVSSNLAWYQQKPGQGPRLLIYSTSTRATGIPARFSGSGSGTEFTLTISSLQSEDSAVYYCQHYNNWPHFGQGTRLEIK
B17: mAb 111 (antibody, V domains shown)
VH: EVQLVESGGVLVKTGGSLRLSCVASGFSFKKAWMNWVRQAPGKGLEWVGRIKRNSDGGAADYAAPVKDRFTLSRDDSKNTLYLQMNSLKTEDTAVYYCTTLDSSSWYVGYYYMDVWGKGTTVTVSS
VL: DIHMTQSPSSVSASLGDRVTFTCRASQNINNWLAWYQQKPGKAPKLLIYTASSLQSGVPSRFSGSGSGTDFTLTISSLQPDDFATYYCQQAHSLPITFGQGTRLGIK
B18: mAb 120 (antibody, V domains shown)
VH: B17 VH with V10G, S55T, A59T, D68G, N79K, Y82F, W106Y
VL: B17 VL with H3Q, L15V, F21I, N28D, S76G, D81E, G105E
B19: mAb 123 (antibody, V domains shown)
VH: DVQLVESGGGTVKTGGSLRLSCVASGFSFKKAWMNWVRQAPGKGLEWVGRIKKNSDDGTADYAAPVKGRFTISRDDSKRTLFLQMNSLQTEDTAVYYCTTLDSSSWFVGYYYMDVWGKGTTVTVSS
VL: B17 VL with H3Q, L15V, T20I, F21I, N28D, G68V, T69S, S76D, D81E, G105E
B20: mAb 115 (antibody, V domains shown)
VH: B17 VH with V10G, L18H, A59T, A60T, D68G, T71I
VL: B17 VL with H3Q, L15V, F21I, N28D, L46I, S53N, D81E, Y87F, S93G, G105E
B21: mAb 114 (antibody, V domains shown)
VH: B17 VH with V10G, S55T, A59P, D68G, N79K
VL: DIQMTQSPSSVSASVGDRVIITCRASQDINNWLAWYLQRPGKAPKLLIYAASSLQSGVPSRFSGSGSGTDFTLTIGSLQPEDFATYYCQQAHSLPITFGQGTRLEIQ
B22: mAb 112 (antibody, V domains shown)
VH: B17 VH with V10G, L18H, A59T, A60T, D68G, T71I
VL: B17 VL with H3Q, L15V, F21I, N28D, L46I, S53N, D81E, Y87F, G105E
B23: mAb 113 (antibody, V domains shown)
VH: B17 VH with V10G, S55T, A59T, A60T, D68G
VL: B17 VL with H3Q, L15V, F21I, N28D, L46I, D81E, G105E
B24: mAb 116 (antibody, V domains shown)
VH: B17 VH with V10G, A59T, A60T, D68G
VL: B17 VL with H3Q, S9F, L15V, F21I, N28D, L46I, D81E, G105E
B25: mAb 117 (antibody, V domains shown)
VH: B17 VH with V10G, S55T, A59T, A60T, D68G, W106L
VL: B17 VL with H3Q, L15V, F21I, N28D, D81E, G105E

The binders below were run against human CD3 (human, UniProt P07766 23-207; P04234 22-171; P09693 23-182) (assay: cell-based or functional assay).
human CD3, sequence (P07766 23-207, chain 1 of 3): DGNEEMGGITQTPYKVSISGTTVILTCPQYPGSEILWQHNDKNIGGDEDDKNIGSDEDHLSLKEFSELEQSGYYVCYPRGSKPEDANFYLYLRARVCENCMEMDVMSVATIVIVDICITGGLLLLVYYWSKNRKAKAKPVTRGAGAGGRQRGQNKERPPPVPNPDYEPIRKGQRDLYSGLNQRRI
human CD3, sequence (P04234 22-171, chain 2 of 3): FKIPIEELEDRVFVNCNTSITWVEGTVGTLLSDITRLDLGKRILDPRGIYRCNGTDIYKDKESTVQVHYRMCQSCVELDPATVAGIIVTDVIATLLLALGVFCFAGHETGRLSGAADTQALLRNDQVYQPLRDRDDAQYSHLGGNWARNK
human CD3, sequence (P09693 23-182, chain 3 of 3): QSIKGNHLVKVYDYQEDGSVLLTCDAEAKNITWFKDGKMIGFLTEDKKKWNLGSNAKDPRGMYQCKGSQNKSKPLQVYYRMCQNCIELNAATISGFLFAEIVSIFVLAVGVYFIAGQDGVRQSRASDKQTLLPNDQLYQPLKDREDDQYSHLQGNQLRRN

CD4 EC50 (nM); CD69/CD25 on human T cells, plate-coated antibody [nM]	CD8 EC50 (nM); CD69/CD25 on human T cells, plate-coated antibody [nM]	Binder
13.6	12.9	B1
13.5	15.3	B2
20.4	20.9	B3
23.4	23.8	B4
15.6	16.9	B5
11.7	12.4	B6
12.9	14.5	B7
11.7	12.1	B8
17.2	19.5	B9
13.1	13.3	B10
12.6	13.9	B11
11.3	12	B12
14.4	15.5	B13
10.4	11.2	B14
12.9	13.8	B15
12.3	12.3	B16
6.96	9.42	B17
6.41	6.46	B18
11.7	11.6	B19
7	7.16	B20
12.6	12.5	B21
6.48	6.56	B22
8.81	8.89	B23
6.96	7.01	B24
6.49	6.59	B25
